Test results: patent US20220033462A1 (ALLOGENE THERAPEUTICS, published 2022)

T1: recombinant human CD19-mouse IgG Fc fusion protein (human; mouse, UniProt P15391 20-291, limits assumed)
T1 construct: Staining reagent; not shown: mouse IgG Fc
T1 sequence (looked up): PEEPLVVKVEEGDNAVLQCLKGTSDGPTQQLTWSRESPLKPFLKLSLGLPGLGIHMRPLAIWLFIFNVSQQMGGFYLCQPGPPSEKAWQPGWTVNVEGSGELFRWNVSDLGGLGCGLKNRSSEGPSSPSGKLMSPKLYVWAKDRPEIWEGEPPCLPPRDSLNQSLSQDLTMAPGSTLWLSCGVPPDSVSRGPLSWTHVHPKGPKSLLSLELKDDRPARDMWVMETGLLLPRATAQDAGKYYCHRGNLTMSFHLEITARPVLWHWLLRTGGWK


biological target: T2, biotinylated recombinant human PSMA-human IgG1 Fc fusion protein (human, UniProt Q04609 44-750, biotinylated (sites not given)); assay: flow cytometry, reporter Jurkat cells co-expressing P-CAR2 (FIGS. 6-9)
T2 construct: Staining reagent; not shown: human IgG1 Fc
T2 sequence (Q04609 44-750 limits assumed): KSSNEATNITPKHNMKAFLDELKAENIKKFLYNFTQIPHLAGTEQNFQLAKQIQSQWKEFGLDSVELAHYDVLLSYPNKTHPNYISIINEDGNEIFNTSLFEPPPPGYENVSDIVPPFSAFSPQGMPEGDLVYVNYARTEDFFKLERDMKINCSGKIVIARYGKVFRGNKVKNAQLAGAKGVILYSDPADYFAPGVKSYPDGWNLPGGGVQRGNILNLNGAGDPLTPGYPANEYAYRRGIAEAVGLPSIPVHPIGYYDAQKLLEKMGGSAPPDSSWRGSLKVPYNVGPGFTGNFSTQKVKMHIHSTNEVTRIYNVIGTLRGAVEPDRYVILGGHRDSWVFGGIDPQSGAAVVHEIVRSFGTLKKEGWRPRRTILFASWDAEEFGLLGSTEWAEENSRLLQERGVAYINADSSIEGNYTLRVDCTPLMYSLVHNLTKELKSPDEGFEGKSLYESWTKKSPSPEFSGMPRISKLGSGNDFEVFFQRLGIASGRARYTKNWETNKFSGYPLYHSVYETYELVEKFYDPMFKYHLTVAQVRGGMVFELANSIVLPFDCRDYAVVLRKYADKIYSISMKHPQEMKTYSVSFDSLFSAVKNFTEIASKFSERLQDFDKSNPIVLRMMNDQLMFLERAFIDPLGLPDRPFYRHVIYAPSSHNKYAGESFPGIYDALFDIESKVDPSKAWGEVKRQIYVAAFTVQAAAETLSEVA

binding result	Binder
binds	N-CAR PD1-CTLA4 (SEQ ID No 1999 with intracellular domain SEQ ID No 2003) (other) EVQLQQSGPELVKPGTSVRISCKTSGYTFTEYTIHWVKQSHGKSLEWIGNINPNNGGTTYNQKFEDKATLTVDKSSSTAYMELRSLTSEDSAVYYCAAGWNFDYWGQGTTVTVSSGGGGSGGGGSGGGGSDIVMTQSHKFMSTSVGDRVSIICKASQDVGTAVDWYQQKPGQSPKLLIYWASTRHTGVPDRFTGSGSGTDFTLTITNVQSEDLADYFCQQYNSYPLTFGAGTMLDLKRAAATERRAEVPTAHPSPSPRPAGQFQTLVVGVVGGLLGSLVLLVWVLAVICSRAARGTIGARRTGQPLKEDPSAVPVFSVDYGELDFQWREKTPEPPVPCVPEQTEYATIVFPSGMGTSSPARRGSADGPRSAQPLRPEDGHCSWPLAVSLSKMLKKRSPLTTGVYVKMPPTEPECEKQFQPYFIPIN
binds	N-CAR BTLA (SEQ ID No 1999 with intracellular domain SEQ ID No 2001) (other) EVQLQQSGPELVKPGTSVRISCKTSGYTFTEYTIHWVKQSHGKSLEWIGNINPNNGGTTYNQKFEDKATLTVDKSSSTAYMELRSLTSEDSAVYYCAAGWNFDYWGQGTTVTVSSGGGGSGGGGSGGGGSDIVMTQSHKFMSTSVGDRVSIICKASQDVGTAVDWYQQKPGQSPKLLIYWASTRHTGVPDRFTGSGSGTDFTLTITNVQSEDLADYFCQQYNSYPLTFGAGTMLDLKRAAATERRAEVPTAHPSPSPRPAGQFQTLVVGVVGGLLGSLVLLVWVLAVIRRHQGKQNELSDTAGREINLVDAHLKSEQTEASTRQNSQVLLSETGIYDNDPDLCFRMQEGSEVYSNPCLEENKPGIVYASLNHSVIGPNSRLARNVKEAPTEYASICVRS
binds	N-CAR CD244 (SEQ ID No 1999 with intracellular domain SEQ ID No 2002) (other) EVQLQQSGPELVKPGTSVRISCKTSGYTFTEYTIHWVKQSHGKSLEWIGNINPNNGGTTYNQKFEDKATLTVDKSSSTAYMELRSLTSEDSAVYYCAAGWNFDYWGQGTTVTVSSGGGGSGGGGSGGGGSDIVMTQSHKFMSTSVGDRVSIICKASQDVGTAVDWYQQKPGQSPKLLIYWASTRHTGVPDRFTGSGSGTDFTLTITNVQSEDLADYFCQQYNSYPLTFGAGTMLDLKRAAATERRAEVPTAHPSPSPRPAGQFQTLVVGVVGGLLGSLVLLVWVLAVIWRRKRKEKQSETSPKEFLTIYEDVKDLKTRRNHEQEQTFPGGGSTIYSMIQSQSSAPTSQEPAYTLYSLIQPSRKSGSRKRNHSPSFNSTIYEVIGKSQPKAQNPARLSRKELENFDVYS
binds	N-CAR PD1 (SEQ ID No 1999 with intracellular domain SEQ ID No 2000) (other) EVQLQQSGPELVKPGTSVRISCKTSGYTFTEYTIHWVKQSHGKSLEWIGNINPNNGGTTYNQKFEDKATLTVDKSSSTAYMELRSLTSEDSAVYYCAAGWNFDYWGQGTTVTVSSGGGGSGGGGSGGGGSDIVMTQSHKFMSTSVGDRVSIICKASQDVGTAVDWYQQKPGQSPKLLIYWASTRHTGVPDRFTGSGSGTDFTLTITNVQSEDLADYFCQQYNSYPLTFGAGTMLDLKRAAATERRAEVPTAHPSPSPRPAGQFQTLVVGVVGGLLGSLVLLVWVLAVICSRAARGTIGARRTGQPLKEDPSAVPVFSVDYGELDFQWREKTPEPPVPCVPEQTEYATIVFPSGMGTSSPARRGSADGPRSAQPLRPEDGHCSWPL
binds	N-CAR PD1-LAG3 (SEQ ID No 1999 with intracellular domain SEQ ID No 2004) (other) EVQLQQSGPELVKPGTSVRISCKTSGYTFTEYTIHWVKQSHGKSLEWIGNINPNNGGTTYNQKFEDKATLTVDKSSSTAYMELRSLTSEDSAVYYCAAGWNFDYWGQGTTVTVSSGGGGSGGGGSGGGGSDIVMTQSHKFMSTSVGDRVSIICKASQDVGTAVDWYQQKPGQSPKLLIYWASTRHTGVPDRFTGSGSGTDFTLTITNVQSEDLADYFCQQYNSYPLTFGAGTMLDLKRAAATERRAEVPTAHPSPSPRPAGQFQTLVVGVVGGLLGSLVLLVWVLAVICSRAARGTIGARRTGQPLKEDPSAVPVFSVDYGELDFQWREKTPEPPVPCVPEQTEYATIVFPSGMGTSSPARRGSADGPRSAQPLRPEDGHCSWPLHLWRRQWRPRRFSALEQGIHPPQAQSKIEELEQEPEPEPEPEPEPEPEPEPEQL

biological target: T1, recombinant human CD19-mouse IgG Fc …; assay: flow cytometry, NFAT-/NFkB-luciferase reporter Jurkat cells expressing P-CAR2 (FIGS. 6-9)

binding result	Binder
binds	P-CAR2 (SEQ ID No 2020) (other, Chimeric antigen receptor on the surface of transduced reporter Jurkat cells; also called positive signaling CAR with scFv from anti-CD19 antibody SJ25C1) EVKLQQSGAELVRPGSSVKISCKASGYAFSSYWMNWVKQRPGQGLEWIGQIYPGDGDTNYNGKFKGQATLTADKSSSTAYMQLSGLTSEDSAVYFCARKTISSVVDFYFDYWGQGTTVTVSSGGGGSGGGGSGGGGSDIELTQSPKFMSTSVGDRVSVTCKASQNVGTNVAWYQQKPGQSPKPLIYSATYRNSGVPDRFTGSGSGTDFTLTITNVQSKDLADYFCQQYNRYPYTSGGGTKLEIKRAAAIEVMYPPPYLDNEKSNGTIIHVKGKHLCPSPLFPGPSKPFWVLVVVGGVLACYSLLVTVAFIIFWVRSKRSRLLHSDYMNMTPRRPGPTRKHYQPYAPPRDFAAYRSRVKFSRSADAPAYQQGQNQLYNELNLGRREEYDVLDKRRGRDPEMGGKPRRKNPQEGLYNELQKDKMAEAYSEIGMKGERRRGKGHDGLYQGLSTATKDTYDALHMQALPPR
